Assays:
[1] = molecular target: T1, cell surface GPC3 on GPC3-expressing cell lines (HepG2 GPC3^high, Huh7 GPC3^med) (UniProt P51654 25-554); assay: cell-based or functional assay
His-tagged human GPC3 = molecular target: T2, His-tagged human GPC3 (human, UniProt P51654 25-559, limits assumed); assay: Octet (BLI); His-tagged GPC3 captured on HIS1K sensors, bsAb in solution
T2 construct: Captured on HIS1K sensors in the Octet assay; also called human GPC3 antigen; Glypican 3; not shown: His tag
Procedure: After humanization, GPC3 binding arms were engineered with single point mutations in the variable light domain with the aim to create a ladder of GPC3 binding affinity, illustrative sequences for which are depicted in FIG. 13. 73 variable light domain variants were engineered and paired with GPC3-A H1.1 (see Example 3C for description of GPC3-A H1.1 variant). The GPC3-A variants were engineered in the 1+1 Fab-scFv-Fc bsAb format and binding for GPC3 antigen was measured using Octet, a BioLayer Interferometry (BLI)-based method. Experimental steps for Octet generally include the following: Immobilization (capture of ligand to a biosensor); Association (dipping of ligand-coated biosensors into wells containing the analyte); and Dissociation (returning of biosensors to well containing buffer). For ease of clinical development (e.g. by investigating the therapeutics in model animals), it is useful for the binding domains to be cross-reactive for cynomolgus antigen; therefore, binding to both human and cynomolgus GPC3 antigen were investigated. His-tagged human and cynomolgus GPC3 were captured on HIS1K sensors then dipped into multiple concentrations of the bispecific antibodies. The resulting dissociation constant (KD) are depicted in FIG. 23.

[2] = molecular target: T1, cell surface GPC3 on GPC3-expressing …; assay: flow cytometry on HepG2 (GPC3high) cells, anti-human Fc secondary
Procedure: (§1) Next, binding of the variants to cell surface GPC3 was investigated. Illustrative affinity variants H1.1_L1.29, H1.1_L1.16, and H1.1_L1.31 were engineered in the 1+1 Fab-scFv-Fc format. […] Cells were then washed and stained with a secondary antibody (typically anti-human Fc AlexaFlour647) for 1 hr at 4° C. After 2 more washes, cells were analyzed by flow cytometry.

[3] = molecular target: T1, cell surface GPC3 on GPC3-expressing …; assay: flow cytometry on HepG2 (GPC3high) cells, secondary antibody stain
Procedure: as §1

T1 sequence (P51654 25-554 limits assumed): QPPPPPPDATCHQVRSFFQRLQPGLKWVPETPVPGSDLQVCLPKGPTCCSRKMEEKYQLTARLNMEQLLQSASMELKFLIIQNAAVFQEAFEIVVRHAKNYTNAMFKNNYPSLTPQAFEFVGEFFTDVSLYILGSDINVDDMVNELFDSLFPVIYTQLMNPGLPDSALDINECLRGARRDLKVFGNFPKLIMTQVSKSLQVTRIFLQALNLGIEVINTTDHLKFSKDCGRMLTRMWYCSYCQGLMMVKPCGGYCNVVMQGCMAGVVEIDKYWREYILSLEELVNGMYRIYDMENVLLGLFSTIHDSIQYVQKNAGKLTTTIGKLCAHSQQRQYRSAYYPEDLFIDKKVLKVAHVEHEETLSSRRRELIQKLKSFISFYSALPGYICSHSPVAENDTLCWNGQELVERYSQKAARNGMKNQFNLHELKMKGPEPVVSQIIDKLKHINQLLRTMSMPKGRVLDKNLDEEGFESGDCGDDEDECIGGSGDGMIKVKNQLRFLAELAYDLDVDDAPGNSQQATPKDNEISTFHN
T2 sequence (P51654 25-559 limits assumed): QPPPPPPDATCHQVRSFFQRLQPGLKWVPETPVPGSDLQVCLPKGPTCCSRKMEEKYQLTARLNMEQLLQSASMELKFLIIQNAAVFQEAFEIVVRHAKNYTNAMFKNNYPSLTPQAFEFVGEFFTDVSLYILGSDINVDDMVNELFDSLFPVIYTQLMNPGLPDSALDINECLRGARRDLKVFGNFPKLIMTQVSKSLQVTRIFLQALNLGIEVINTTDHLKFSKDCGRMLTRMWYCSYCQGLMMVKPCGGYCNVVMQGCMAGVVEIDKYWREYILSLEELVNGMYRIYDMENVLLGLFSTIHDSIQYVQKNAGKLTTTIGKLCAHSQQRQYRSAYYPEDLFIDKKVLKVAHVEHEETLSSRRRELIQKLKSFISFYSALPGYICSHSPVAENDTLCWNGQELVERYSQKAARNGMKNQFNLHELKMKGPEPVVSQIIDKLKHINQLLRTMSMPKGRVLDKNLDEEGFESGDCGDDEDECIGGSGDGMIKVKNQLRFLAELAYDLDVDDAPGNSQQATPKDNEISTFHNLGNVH

Row | EC50 of RTCC (2D RTCC on Incucyte, HepG2, 10:1 effector:target ratio) [1] [µg/mL] | Kd (His-tagged human GPC3) [nM] | EC50 (read off the curve) [2] [µg/mL] | EC50 (read off the curve) [3] [µg/mL] | Binder
1 | < 0.1 |  |  |  | XENP34920 (bispecific antibody) heavy 1: QVQLVQSGAEVKKPGASVKVSCKASGYTFTDYEMHWVRQAPGQGLEWMGALEPKTGDTAYSQKFQGRVTMTADKSISTAYMELSRLRSDDTAVYYCTRFYSYTYWGQGTLVTVSSASTKGPSVFPLAPSSKSTSGGTAALGCLVKDYFPEPVTVSWNSGALTSGVHTFPAVLQSSGLYSLSSVVTVPSSSLGTQTYICNVNHKPSDTKVDKKVEPKSCDKTHTCPPCPAPPVAGPSVFLFPPKPKDTLMISRTPEVTCVVVDVKHEDPEVKFNWYVDGVEVHNAKTKPREEEYNSTYRVVSVLTVLHQDWLNGKEYKCKVSNKALPAPIEKTISKAKGQPREPQVYTLPPSREEMTKNQVSLTCDVSGFYPSDIAVEWESDGQPENNYKTTPPVLDSDGSFFLYSKLTVDKSRWEQGDVFSCSVMHEALHNHYTQKSLSLSPGK heavy 2: QVQLVQSGAEVKKPGASVKVSCKASGYTFTDYEMHWVRQAPGQGLEWMGALEPKTGDTAYSQKFQGRVTMTADKSISTAYMELSRLRSDDTAVYYCTRFYSYTYWGQGTLVTVSSASTKGPSVFPLAPSSKSTSGGTAALGCLVKDYFPEPVTVSWNSGALTSGVHTFPAVLQSSGLYSLSSVVTVPSSSLGTQTYICNVNHKPSNTKVDKKVEPKSCGGGGSGGGGSQAVVTQEPSLTVSPGGTVTLTCGSSTGAVTTSNYANWVQQKPGKSPRGLIGGTNKRAPGVPARFSGSLLGGKAALTISGAQPEDEADYYCALWYSNHWVFGGGTKLTVLGKPGSGKPGSGKPGSGKPGSEVQLVESGGGLVQPGGSLRLSCAASGFTFSTYAMNWVRQAPGKGLEWVGRIRSKANNYATYYADSVKGRFTISRDDSKNTLYLQMNSLRAEDTAVYYCVRHGNFGDSYVSWFAYWGQGTLVTVSSGGGGSGGGGSKTHTCPPCPAPPVAGPSVFLFPPKPKDTLMISRTPEVTCVVVDVKHEDPEVKFNWYVDGVEVHNAKTKPREEQYNSTYRVVSVLTVLHQDWLNGKEYKCKVSNKALPAPIEKTISKAKGQPREPQVYTLPPSREQMTKNQVKLTCLVKGFYPSDIAVEWESNGQPENNYKTTPPVLDSDGSFFLYSKLTVDKSRWQQGNVFSCSVMHEALHNHYTQKSLSLSPGK light: DVVMTQSPLSLPVTLGQPASISCRSSQSLVHSSGNTYLHWYQQRPGQSPRLLIYKVSNRFSGVPDRFSGSGSGTDFTLKISRVEAEDVGVYFCSQSTHVPPTFGSGTKLEIKRTVAAPSVFIFPPSDEQLKSGTASVVCLLNNFYPREAKVQWKVDNALQSGNSQESVTEQDSKDSTYSLSSTLTLSKADYEKHKVYACEVTHQGLSSPVTKSFNRGEC
2 |  | 400 | ~3 | ~3 | XENP36140 (GPC3-A H1.1_L1.31 formatted as 1+1 Fab-scFv-Fc with CD3 High-Int #1 scFv) (bispecific antibody, 1+1 Fab-scFv-Fc, human IgG1 heterodimeric backbone; treated as one molecule; also called [GPC3]H1.1_L1.31) heavy: QVQLVQSGAEVKKPGASVKVSCKASGYTFTDYEMHWVRQAPGQGLEWMGALEPKTGDTAYSQKFQGRVTMTADKSISTAYMELSRLRSDDTAVYYCTRFYSYTYWGQGTLVTVSSASTKGPSVFPLAPSSKSTSGGTAALGCLVKDYFPEPVTVSWNSGALTSGVHTFPAVLQSSGLYSLSSVVTVPSSSLGTQTYICNVNHKPSDTKVDKKVEPKSCDKTHTCPPCPAPPVAGPSVFLFPPKPKDTLMISRTPEVTCVVVDVKHEDPEVKFNWYVDGVEVHNAKTKPREEEYNSTYRVVSVLTVLHQDWLNGKEYKCKVSNKALPAPIEKTISKAKGQPREPQVYTLPPSREEMTKNQVSLTCDVSGFYPSDIAVEWESDGQPENNYKTTPPVLDSDGSFFLYSKLTVDKSRWEQGDVFSCSVMHEALHNHYTQKSLSLSPGK scFv-Fc: not shown light: DVVMTQSPLSLPVTLGQPASISCRSSQSLVHSNGNTYLHWYQQRPGQSPRLLIYYVSNRFSGVPDRFSGSGSGTDFTLKISRVEAEDVGVYFCSQNTHVPPTFGSGTKLEIKRTVAAPSVFIFPPSDEQLKSGTASVVCLLNNFYPREAKVQWKVDNALQSGNSQESVTEQDSKDSTYSLSSTLTLSKADYEKHKVYACEVTHQGLSSPVTKSFNRGEC
